Measured values from the RNAGym collection of RNA variant scans (doi:10.7554/elife.80360).

B1: HDV Ribozyme (parent)
chain: GGCCGGCAUGGUCCCAGCCUCCUCGCUGGCGCCGGCUGGGCAACAUUCCGAGGGGACCGUCCCCUCGGUAAUGGCGAAUGGGACCCA

Variants of: B1
Assay: self-cleavage, relative activity (ratio to wild type); higher = more cleavage; co-transcriptional

Going from C26G C36U to G29C C58U, the self-cleavage falls from 0.529 to 0.104.

First: C26G G35C
Second: C14U G38U
The self-cleavage of the first is lower: 0.131 for the first, 0.271 for the second.

Going from G28C G38A to G25A C32A, the self-cleavage rises from 0.0415 to 0.0848.

Going from G29A A78U to U20C G80U, the self-cleavage falls from 0.143 to 0.0625.

Compared with U23C U27C, A16G G39C is lower in self-cleavage: 0.65 for the first, 0.0791 for the second.

First: C19U C36U
Second: C7G A8G
The self-cleavage of the first is lower: 0.0314 for the first, 0.519 for the second.

First: U69A C84G
Second: G50C G82C
The self-cleavage of the first is higher: 0.578 for the first, 0.383 for the second.

Going from A77G C85G to C36A U47A, the self-cleavage falls from 0.655 to 0.196.

Going from U23A G59U to U23A A45C, the self-cleavage falls from 1.09 to 0.344.

Going from A56U U65C to G6C G76C, the self-cleavage falls from 1.04 to 0.364.

First: G34A G59A
Second: U12G G68A
The self-cleavage of the first is lower: 0.214 for the first, 0.529 for the second.

Compared with C4G U46C, A56U C57U is higher in self-cleavage: 0 for the first, 0.886 for the second.

Going from G11A A45C to C36A A56C, the self-cleavage falls from 0.155 to 0.131.

Going from C26G C86A to C30G C33U, the self-cleavage falls from 0.847 to 0.

First: G11U G39U
Second: C64G G73C
The self-cleavage of the first is lower: 0.0936 for the first, 0.324 for the second.

Compared with C64G A87G, G31U A71G is lower in self-cleavage: 0.853 for the first, 0.271 for the second.

First: C21U C62G
Second: U12A G29U
The self-cleavage of the first is higher: 0.244 for the first, 0.113 for the second.

Compared with G1A C36U, G29A G50A is lower in self-cleavage: 0.244 for the first, 0.134 for the second.

First: G6U G25U
Second: C4A C13G
The self-cleavage of the first is higher: 0.117 for the first, 0.0692 for the second.

First: U20C C21G
Second: G38C G74A
The self-cleavage of the first is lower: 0 for the first, 0.0936 for the second.

Compared with G29C U46G, G10U G29C is lower in self-cleavage: 0.0723 for the first, 0.0615 for the second.

Going from G35C G73C to G40A G53U, the self-cleavage rises from 0.269 to 0.823.

Going from C48A G82C to U65A G82U, the self-cleavage falls from 0.35 to 0.217.

Compared with A8U C66G, G1A U79G is lower in self-cleavage: 0.8 for the first, 0.0923 for the second.

Going from C18G G29C to G11C A45U, the self-cleavage falls from 0.939 to 0.0554.

Compared with G10U G80U, C66A G68U is higher in self-cleavage: 0.0944 for the first, 0.616 for the second.

First: C57A C58U
Second: U46A C63U
The self-cleavage of the first is higher: 1.05 for the first, 0.763 for the second.

Going from G34A A78U to A16U G31C, the self-cleavage falls from 0.0489 to 0.0437.

Going from G53C A56U to G38U G81A, the self-cleavage falls from 1.11 to 0.128.

Going from G2U U72C to C26U G73C, the self-cleavage rises from 0.0191 to 0.492.

First: U37G A70C
Second: G11C A83C
The self-cleavage of the first is higher: 0.312 for the first, 0.158 for the second.

Going from C18U U23C to C4G G34A, the self-cleavage falls from 0.415 to 0.161.

Compared with C24G G74C, C13U U27A is higher in self-cleavage: 0.109 for the first, 1.29 for the second.

First: U9A C13G
Second: G73U U79G
The self-cleavage of the first is lower: 0.111 for the first, 0.374 for the second.

First: C3A U72C
Second: G55A C61A
The self-cleavage of the first is lower: 0.198 for the first, 0.956 for the second.

Compared with C32G G52C, G1A C57U is lower in self-cleavage: 0.208 for the first, 0 for the second.

Going from C32U G80U to G2A U27G, the self-cleavage falls from 0.145 to 0.

First: A8G C14G
Second: C3U C84U
The self-cleavage of the first is lower: 0 for the first, 0.808 for the second.

Going from G34A G50A to G74U, the self-cleavage rises from 0.16 to 0.569.

First: G68A G73A
Second: A16G C61A
The self-cleavage of the first is lower: 0.463 for the first, 1.08 for the second.

Compared with C75A C85U, U69A G74A is higher in self-cleavage: 0.256 for the first, 0.511 for the second.

Compared with U20G U65G, G50A C57A is higher in self-cleavage: 0.437 for the first, 0.972 for the second.

Compared with C57A U69C, C3A G50U is lower in self-cleavage: 0.892 for the first, 0.754 for the second.

Going from C13G A45C to C48U C58G, the self-cleavage rises from 0.0639 to 1.06.

Going from C15G U79G to G59A A71U, the self-cleavage rises from 0.391 to 0.929.

Compared with U9G C61A, G31C G59U is lower in self-cleavage: 1.33 for the first, 0.252 for the second.

First: C15U U46C
Second: U20A C32G
The self-cleavage of the first is higher: 0.9 for the first, 0.111 for the second.

First: G11U G82U
Second: A45G G74C
The self-cleavage of the first is lower: 0.138 for the first, 0.332 for the second.

First: G25C C86G
Second: C36A A77G
The self-cleavage of the first is higher: 0.332 for the first, 0.0791 for the second.

Compared with C36U A71G, C24A U47A is lower in self-cleavage: 0.653 for the first, 0.554 for the second.

Compared with C13G C84U, G2U G39A is lower in self-cleavage: 0.095 for the first, 0.00989 for the second.

First: C4G G81A
Second: C14G C18A
The self-cleavage of the first is lower: 0.0382 for the first, 0.17 for the second.

Going from G40A G52C to U23C C33U, the self-cleavage falls from 0.986 to 0.697.

First: C30U G67U
Second: G5U A45G
The self-cleavage of the first is higher: 0.75 for the first, 0.692 for the second.

Compared with U72A G82A, G11U C49A is higher in self-cleavage: 0.295 for the first, 0.307 for the second.

Compared with C21A G67A, C66A A71U is higher in self-cleavage: 0.0712 for the first, 0.692 for the second.

First: C7G U12G
Second: A78U C85A
The self-cleavage of the first is lower: 0 for the first, 0.185 for the second.

First: C61G G67U
Second: C30U G54U
The self-cleavage of the first is higher: 0.649 for the first, 0.597 for the second.

First: G28U A83G
Second: C64A G81A
The self-cleavage of the first is lower: 0.0569 for the first, 0.386 for the second.

Compared with C49U G55A, G2U C3U is lower in self-cleavage: 0.866 for the first, 0.0228 for the second.

Going from C44A U46G to U23A C36G, the self-cleavage falls from 0.785 to 0.17.

Compared with U27C A78C, G52C G74U is higher in self-cleavage: 0.0594 for the first, 0.312 for the second.

First: G5U U20A
Second: C62G A83G
The self-cleavage of the first is lower: 0 for the first, 0.404 for the second.

Compared with G17C G74A, C3A A70C is higher in self-cleavage: 0.089 for the first, 0.501 for the second.

Going from A56U A77U to A42C G53U, the self-cleavage falls from 0.623 to 0.231.

Compared with G74A A87C, C15A C49G is lower in self-cleavage: 0.583 for the first, 0.166 for the second.

Going from G54U C86U to G34C C57G, the self-cleavage falls from 0.882 to 0.0978.

Compared with U27G G81U, C64A A87G is higher in self-cleavage: 0.643 for the first, 0.902 for the second.

Compared with C21G G54C, C36G G82A is higher in self-cleavage: 0.0264 for the first, 0.07 for the second.

Going from G25C G55A to C15A G80C, the self-cleavage rises from 0.158 to 0.222.

Going from C4A A16G to C13U C24U, the self-cleavage falls from 0.344 to 0.262.

First: U46A C66U
Second: U20G C86U
The self-cleavage of the first is higher: 0.743 for the first, 0.214 for the second.

Compared with G39U C75A, G28U A78U is lower in self-cleavage: 0.166 for the first, 0.0723 for the second.

First: U46C A87G
Second: G6A U12G
The self-cleavage of the first is higher: 0.727 for the first, 0.415 for the second.

First: U20C G35U
Second: U23G G68C
The self-cleavage of the first is lower: 0.0978 for the first, 0.482 for the second.

Compared with C49G G73U, C32G C44G is lower in self-cleavage: 0.322 for the first, 0.0426 for the second.

First: A43G G81U
Second: G25C G68A
The self-cleavage of the first is lower: 0.138 for the first, 0.227 for the second.

First: U23A U47G
Second: U72A U79G
The self-cleavage of the first is higher: 0.748 for the first, 0.361 for the second.

First: A8U G25A
Second: G1U C61G
The self-cleavage of the first is lower: 0 for the first, 0.326 for the second.

Going from G35A G38C to G80A C86G, the self-cleavage rises from 0.0652 to 0.362.

Compared with G39U C75G, C3A G68C is higher in self-cleavage: 0.0978 for the first, 0.363 for the second.

First: C13U G54U
Second: U12G C84G
The self-cleavage of the first is higher: 0.578 for the first, 0.256 for the second.

Compared with G5C G80U, A45G G53A is higher in self-cleavage: 0.124 for the first, 0.991 for the second.

G50C C85G showed a self-cleavage of 0.831.
